Experimental data from the supplement of paper PMC11246515.
± gives the standard deviation of the averaged measurements.

Assay: total protein half-life in vivo (active degradation + dilution); higher = more stable protein
[1] = E. coli NCM3722 delta-clpP delta-lon delta-hslV, growth: N-lim chemostat, doubling time 6 h
[2] = E. coli NCM3722 delta-clpP, growth: N-lim chemostat, doubling time 6 h
[3] = E. coli NCM3722 delta-hslV, growth: N-lim chemostat, doubling time 6 h
[4] = E. coli NCM3722 delta-lon, growth: N-lim chemostat, doubling time 6 h
[5] = E. coli NCM3722 delta-smpB, growth: N-lim chemostat, doubling time 6 h
[6] = wild type E. coli NCM3722, growth: C-lim chemostat, doubling time 3 h
[7] = wild type E. coli NCM3722, growth: C-lim chemostat, doubling time 6 h
[8] = wild type E. coli NCM3722, growth: C-lim chemostat, doubling time 12 h
[9] = wild type E. coli NCM3722, growth: N-lim chemostat, doubling time 6 h
[10] = wild type E. coli NCM3722, growth: N-lim chemostat, doubling time 12 h
[11] = wild type E. coli NCM3722, growth: P-lim chemostat, doubling time 6 h
[12] = wild type E. coli NCM3722, growth: P-lim chemostat, doubling time 12 h

Row | Sequence | total protein half-life in vivo [1] | total protein half-life in vivo [2] | total protein half-life in vivo [3] | total protein half-life in vivo [4] | total protein half-life in vivo [5] | total protein half-life in vivo [6] | total protein half-life in vivo [7] | total protein half-life in vivo [8] | total protein half-life in vivo [9] | total protein half-life in vivo [10] | total protein half-life in vivo [11] | total protein half-life in vivo [12]
1 | MMILSILATVVLLGALFYHRVSLFISSLILLAWTAALGVAGLWSAWVLVPLAIILVPFNFAPMRKSMISAPVFRGFRKVMPPMSRTEKEAIDAGTTWWEGDLFQGKPDWKKLHNYPQPRLTAEEQAFLDGPVEEACRMANDFQITHELADLPPELWAYLKEHRFFAMIIKKEYGGLEFSAYAQSRVLQKLSGVSGILAITVGVPNSLGPGELLQHYGTDEQKDHYLPRLARGQEIPCFALTSPEAGSDAGAIPDTGIVCMGEWQGQQVLGMRLTWNKRYITLAPIATVLGLAFKLSDPEKLLGGAEDLGITCALIPTTTPGVEIGRRHFPLNVPFQNGPTRGKDVFVPIDYIIGGPKMAGQGWRMLVECLSVGRGITLPSNSTGGVKSVALATGAYAHIRRQFKISIGKMEGIEEPLARIAGNAYVMDAAASLITYGIMLGEKPAVLSAIVKYHCTHRGQQSIIDAMDITGGKGIMLGQSNFLARAYQGAPIAITVEGANILTRSMMIFGQGAIRCHPYVLEEMEAAKNNDVNAFDKLLFKHIGHVGSNKVRSFWLGLTRGLTSSTPTGDATKRYYQHLNRLSANLALLSDVSMAVLGGSLKRRERISARLGDILSQLYLASAVLKRYDDEGRNEADLPLVHWGVQDALYQAEQAMDDLLQNFPNRVVAGLLNVVIFPTGRHYLAPSDKLDHKVAKILQVPNATRSRIGRGQYLTPSEHNPVGLLEEALVDVIAADPIHQRICKELGKNLPFTRLDELAHNALVKGLIDKDEAAILVKAEESRLRSINVDDFDPEELATKPVKLPEKVRKVEAA | 6.66 ± 0.19 h | 5.65 ± 0.067 h | 2.2 ± 0.21 h | 2.48 ± 0.52 h | 1.82 ± 0.079 h | 1.43 ± 0.11 h | 1.86 ± 0.12 h | 2.9 ± 0.51 h | 2.2 ± 0.1 h | 3.64 ± 0.49 h | 2.01 ± 0.24 h | 3.65 ± 0.59 h
2 | MMILVTGGARSGKSRHAEALIGDSSQVLYIATSQILDDEMAARIEHHRQGRPEHWRTVERWQHLDELIHADINPNEVVLLECVTTMVTNLLFDYGGDKDPDEWDYQAMEQAINAEIQSLIAACQRCPAKVVLVTNEVGMGIVPESRLARHFRDIAGRVNQQLAAAANEVWLVVSGIGVKIK [P0AE76] | 4.52 h | 3.9 h | 4.32 h |  | 4.68 h |  | 5.17 h | 10.5 h | 3.85 h | 8.3 h | 5.94 h | 9.83 ± 1.8 h
3 | MMITLRKLPLAVAVAAGVMSAQAMAVDFHGYARSGIGWTGSGGEQQCFQTTGAQSKYRLGNECETYAELKLGQEVWKEGDKSFYFDTNVAYSVAQQNDWEATDPAFREANVQGKNLIEWLPGSTIWAGKRFYQRHDVHMIDFYYWDISGPGAGLENIDVGFGKLSLAATRSSEAGGSSSFASNNIYDYTNETANDVFDVRLAQMEINPGGTLELGVDYGRANLRDNYRLVDGASKDGWLFTAEHTQSVLKGFNKFVVQYATDSMTSQGKGLSQGSGVAFDNEKFAYNINNNGHMLRILDHGAISMGDNWDMMYVGMYQDINWDNDNGTKWWTVGIRPMYKWTPIMSTVMEIGYDNVESQRTGDKNNQYKITLAQQWQAGDSIWSRPAIRVFATYAKWDEKWGYDYTGNADNNANFGKAVPADFNGGSFGRGDSDEWTFGAQMEIWW | 6.61 h | > 8 h |  |  | 6.71 ± 0.23 h | 3.38 ± 0.6 h | 6.85 ± 1.6 h | > 16 h | > 8 h | > 16 h | 7.548 ± 0.042 h | > 16 h
4 | MMKLMFASDIHGSLPATERVLELFAQSGAQWLVILGDVLNHGPRNALPEGYAPAKVAERLNEVAHKVIAVRGNCDSEVDQMLLHFPITAPWQQVLLEKQRLFLTHGHLFGPENLPALNQNDVLVYGHTHLPVAEQRGEIFHFNPGSVSIPKGGNPASYGMLDNDVLSVIALNDQSIIAQVAINP |  | 4.01 ± 0.21 h | 3.75 ± 0.28 h | 4.04 ± 0.35 h | 3.97 ± 0.34 h | 2.7 ± 0.24 h | 5.48 ± 0.14 h | 9.4066 ± 0.0045 h | 4 ± 0.66 h | 6.84 ± 0.35 h | 5.32 ± 0.64 h | 10.1 ± 0.38 h
5 | MMLSKKNSETLENFSEKLEVEGRSLWQDARRRFMHNRAAVASLIVLVLIALFVILAPMLSQFAYDDTDWAMMSSAPDMESGHYFGTDSSGRDLLVRVAIGGRISLMVGVAAALVAVVVGTLYGSLSGYLGGKVDSVMMRLLEILNSFPFMFFVILLVTFFGQNILLIFVAIGMVSWLDMARIVRGQTLSLKRKEFIEAAQVGGVSTSGIVIRHIVPNVLGVVVVYASLLVPSMILFESFLSFLGLGTQEPLSSWGALLSDGANSMEVSPWLLLFPAGFLVVTLFCFNFIGDGLRDALDPKDR [P0AFH6] | 5.16 ± 0.26 h | 5.51 ± 0.1 h |  | 4.46 ± 0.22 h | 5.01 ± 0.59 h | 3.23 ± 0.41 h | 5.484 ± 0.036 h | 10.8 ± 2.5 h | 5.17 ± 0.17 h | 8.49 ± 0.1 h | 5.37 ± 0.46 h | 9.83 ± 1.2 h
6 | MMNFNNVFRWHLPFLFLVLLTFRAAAADTLLILGDSLSAGYRMSASAAWPALLNDKWQSKTSVVNASISGDTSQQGLARLPALLKQHQPRWVLVELGGNDGLRGFQPQQTEQTLRQILQDVKAANAEPLLMQIRLPANYGRRYNEAFSAIYPKLAKEFDVPLLPFFMEEVYLKPQWMQDDGIHPNRDAQPFIADWMAKQLQPLVNHDS [P0ADA1] | 4.1 ± 0.072 h | 4.87 ± 0.67 h | 6.432 ± 0.063 h | 6.67 ± 0.4 h | 4.99 ± 0.46 h | 3.25 ± 0.11 h | 6.228 ± 0.058 h | 11.1 ± 5.7 h | 5.25 ± 0.28 h | 11 ± 3.7 h | 5.23 ± 0.37 h | 11.4 ± 0.78 h
7 | MMNKSNFEFLKGVNDFTYAIACAAENNYPDDPNTTLIKMRMFGEATAKHLGLLLNIPPCENQHDLLRELGKIAFVDDNILSVFHKLRRIGNQAVHEYHNDLNDAQMCLRLGFRLAVWYYRLVTKDYDFPVPVFVLPERGENLYHQEVLTLKQQLEQQVREKAQTQAEVEAQQQKLVALNGYIAILEGKQQETEAQTQARLAALEAQLAEKNAELAKQTEQERKAYHKEITDQAIKRTLNLSEEESRFLIDAQLRKAGWQADSKTLRFSKGARPEPGVNKAIAEWPTGKDETGNQGFADYVLFVGLKPIAVVEAKRNNIDVPARLNESYRYSKCFDNGFLRETLLEHYSPDEVHEAVPEYETSWQDTSGKQRFKIPFCYSTNGREYRATMKTKSGIWYRDVRDTRNMSKALPEWHRPEELLEMLGSEPQKQNQWFADNPGMSELGLRYYQEDAVRAVEKAIVKGQQEILLAMATGTGKTRTAIAMMFRLIQSQRFKRILFLVDRRSLGEQALGAFEDTRINGDTFNSIFDIKGLTDKFPEDSTKIHVATVQSLVKRTLQSDEPMPVARYDCIVVDEAHRGYILDKEQTEGELQFRSQLDYVSAYRRILDHFDAVKIALTATPALHTVQIFGEPVYRYTYRTAVIDGFLIDQDPPIQIITRNAQEGVYLSKGEQVERISPQGEVINDTLEDDQDFEVADFNRGLVIPAFNRAVCNELTNYLDPTGSQKTLVFCVTNAHADMVVEELRAAFKKKYPQLEHDAIIKITGDADKDARKVQTMITRFNKERLPNIVVTVDLLTTGVDIPSICNIVFLRKVRSRILYEQMKGRATRLCPEVNKTSFKIFDCVDIYSTLESVDTMRPVVVRPKVELQTLVNEITDSETYKITEADGRSFAEHSHEQLVAKLQRIIGLATFNRDRSETIDKQVRRLDELCQDAAGVNFNGFASRLREKGPHWSAEVFNKLPGFIARLEKLKTDINNLNDAPIFLDIDDEVVSVKSLYGDYDTPQDFLEAFDSLVQRSPNAQPALQAVINRPRDLTRKGLVELQEWFDRQHFEESSLRKAWKETRNEDIAARLIGHIRRAAVGDALKPFEERVDHALTRIKGENDWSSEQLSWLDRLAQALKEKVVLDDDVFKTGNFHRRGGKAMLQRTFDDNLDTLLGKFSDYIWDELA | 5.34 ± 0.76 h | 4.93 ± 0.26 h | 3.45 ± 0.22 h | 3.899 ± 0.015 h | 3.07 ± 0.13 h | 2.49 ± 0.13 h | 4.7 ± 0.1 h | 7.2 ± 0.38 h | 3.52 ± 0.2 h | 5.31 ± 0.98 h | 3.94 ± 0.11 h | 6.58 ± 0.092 h
8 | MMNPVLWLQMTNMISYQGLVRTFLNKNDLKAFIAFPSSLYPDDPNWIPPLFIERNEHLSAKNPGTDHIIWQAWVAKKAGQIVGRITAQIDTLHRERYGKDTGHFGMIDAIDDPQVFAALFGAAEAWLKSQGASKISGPFSLNINQESGLLIEGFDTPPCAMMPHGKPWYAAHIEQLGYHKGIDLLAWWMQRTDLTFSPALKKLMDQVRKKVTIRCINRQRFAEEMQILREIFNSGWQHNWGFVPFTEHEFATMGDQLKYLVPDDMIYIAEIDSAPCAFIVGLPNINEAIADLNGSLFPFGWAKLLWRLKVSGVRTARVPLMGVRDEYQFSRIGPVIALLLIEALRDPFARRKIDALEMSWILETNTGMNNMLERIGAEPYKRYRLYEKQI |  |  | 2.23 h |  | 3.38 h |  |  |  |  |  |  | 
9 | MMNTEGNNGNKPLGLWNVVSIGIGAMVGAGIFALLGQAALLMEASTWVAFAFGGIVAMFSGYAYARLGASYPSNGGIIDFFRRGLGNGVFSLALSLLYLLTLAVSIAMVARAFGAYAVQFLHEGSQEEHLILLYALGIIAVMTLFNSLSNHAVGRLEVILVGIKMMILLLLIIAGVWSLQPAHISVSAPPSSGAFFSCIGITFLAYAGFGMMANAADKVKDPQVIMPRAFLVAIGVTTLLYISLALVLLSDVSALELEKYADTAVAQAASPLLGHVGYVIVVIGALLATASAINANLFAVFNIMDNMGSERELPKLMNKSLWRQSTWGNIIVVVLIMLMTAALNLGSLASVASATFLICYLAVFVVAIRLRHDIHASLPILIVGTLVMLLVIVGFIYSLWSQGSRALIWIIGSLLLSLIVAMVMKRNKTV |  | 6.11 h |  |  |  |  |  |  |  |  |  | 
10 | MMQHQVNVSARFNPETLERVLRVVRHRGFHVCSMNMAAASDAQNINIELTVASPRSVDLLFSQLNKLVDVAHVAICQSTTTSQQIRA [P0ADG1] |  | 0.96 h |  | 0.664 h |  | 0.829 ± 0.59 h | 0.318 h | 0.533 h | 0.823 h | 0.848 ± 0.14 h | 0.343 h | 0.967 ± 0.53 h
11 | MMQPVINAPEIATAREQQLFNGKNFHVFIYNKTESISGLHQHDYYEFTLVLTGRYFQEINGKRVLLERGDFVFIPLGSHHQSFYEFGATRILNVGISKRFFEQHYLPLLPYCFVASQVYRTNNAFLTYVETVISSLNFRETGLEEFVEMVTFYVINRLRHYREEQVIDDVPQWLKSTVEKMHDKEQFSESALENMVALSAKSQEYLTRATQRYYGKTPMQIINEIRINFAKKQLEMTNYSVTDIAFEAGYSSPSLFIKTFKKLTSFTPKSYRKKLTEFNQ | 5.04 ± 0.62 h |  |  |  |  | 1.18 ± 0.012 h | 1.89 ± 0.2 h | 1.55 h |  |  |  | 
12 | MMSAPKITFIGAGSTIFVKNILGDVFHREALKTAHIALMDIDPTRLEESHIVVRKLMDSAGASGKITCHTQQKEALEDADFVVVAFQIGGYEPCTVTDFEVCKRHGLEQTIADTLGPGGIMRALRTIPHLWQICEDMTEVCPDATMLNYVNPMAMNTWAMYARYPHIKQVGLCHSVQGTAEELARDLNIDPATLRYRCAGINHMAFYLELERKTADGSYVNLYPELLAAYEAGQAPKPNIHGNTRCQNIVRYEMFKKLGYFVTESSEHFAEYTPWFIKPGREDLIERYKVPLDEYPKRCVEQLANWHKELEEYKKASRIDIKPSREYASTIMNAIWTGEPSVIYGNVRNDGLIDNLPQGCCVEVACLVDANGIQPTKVGTLPSHLAALMQTNINVQTLLTEAILTENRDRVYHAAMMDPHTAAVLGIDEIYALVDDLIAAHGDWLPGWLHR | 4.14 h | 2.52 ± 0.52 h | 1.5 h | 2.73 h |  | 3.25 ± 0.39 h | 4.25 ± 0.26 h | 8.03 ± 1.2 h | 1.97 h |  | 4.92 ± 0.48 h | 9.8 ± 0.35 h
